# Measurements reported in PMC7642358 (2020).
# B1: Sb23-Fc (Sb23 fused to the Fc domain from human IgG) (Fc fusion)
# chain: QVQLVESGGGLVQAGGSLRLSCAASGFPVESENMHWYRQAPGKEREWVAAIYSTGGWTLYADSVKGRFTISRDNAKNTVYLQMNSLKPEDTAVYYCAVQVGYWYEGQGTQVTVS
# Tests used:
# [1] = molecular target: T1, SARS-CoV-2 spike receptor-binding domain (2019-nCoV RBD-SD1, residues 319–566) (SARS-CoV-2, UniProt P0DTC2 319-566, chemically biotinylated with NHS-PEG4-Biotin for selection, ELISA and BLI); assay: BLI
# [2] = molecular target: T1, SARS-CoV-2 spike receptor-binding …; assay: BLI; remark: listed apart in the source
binder,measurement,setting,value
B1,koff,[1],7.1e-05 s⁻¹
same,Kd,[2],0.225 nM
